Source: PMC2872155

Assays:
[1] = system: VP35 IID (Zaire ebolavirus); assay: ITC; conditions: not given in the material (Methods absent)
[2] = system: VP35 IID (Zaire ebolavirus); assay: NMR; conditions: 5'ppp; not given in the material (Methods absent)
[3] = system: VP35 IID (Zaire ebolavirus); assay: NMR competition; conditions: 5'ppp; not given in the material (Methods absent)

Row | Substance | Kd [1] | binding signal (relative HSQC peak intensity) [2] | binding signal (relative HSQC peak intensity) [3]
1 | 8 bp dsRNA | 500 nM |  | 
2 | IVT-8 bp dsRNA |  | 0.36 | 0.42
